This note sets out measurements from paper PMC7423370 (Science Advances, 2020).

The target of the experiment is T1, human CLC-7 with C-terminal tandem twin Strep-tag (human, UniProt P51798 1-805).
T1 sequence: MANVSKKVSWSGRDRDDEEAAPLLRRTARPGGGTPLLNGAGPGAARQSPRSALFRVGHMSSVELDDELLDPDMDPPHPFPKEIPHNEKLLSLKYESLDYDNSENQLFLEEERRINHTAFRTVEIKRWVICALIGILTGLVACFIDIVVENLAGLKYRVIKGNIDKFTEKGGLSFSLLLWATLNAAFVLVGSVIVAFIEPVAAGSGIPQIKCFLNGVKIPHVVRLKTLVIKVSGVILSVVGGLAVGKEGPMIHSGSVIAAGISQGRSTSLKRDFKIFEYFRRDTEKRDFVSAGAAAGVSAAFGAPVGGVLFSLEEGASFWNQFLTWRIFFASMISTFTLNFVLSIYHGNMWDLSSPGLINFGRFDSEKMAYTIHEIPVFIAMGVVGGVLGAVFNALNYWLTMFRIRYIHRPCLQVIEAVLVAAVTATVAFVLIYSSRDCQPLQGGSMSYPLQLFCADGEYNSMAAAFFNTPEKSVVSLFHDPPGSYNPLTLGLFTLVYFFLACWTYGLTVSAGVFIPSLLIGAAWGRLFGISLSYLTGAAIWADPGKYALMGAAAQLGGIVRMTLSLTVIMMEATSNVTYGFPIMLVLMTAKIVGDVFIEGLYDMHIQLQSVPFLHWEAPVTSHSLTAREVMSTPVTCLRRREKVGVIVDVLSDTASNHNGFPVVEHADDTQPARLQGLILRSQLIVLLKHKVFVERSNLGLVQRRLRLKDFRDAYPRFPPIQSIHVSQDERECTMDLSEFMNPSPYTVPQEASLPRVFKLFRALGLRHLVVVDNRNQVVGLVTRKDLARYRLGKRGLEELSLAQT
The experiment can be described thus: cryo-EM structure.

B1: human Ostm1, no tag (natural protein)
chain: ALPFGSSPHRVFHDLLSEQQLLEVEDLSLSLLQGGGLGPLSLPPDLPDLDPECRELLLDFANSSAELTGCLVRSARPVRLCQTCYPLFQQVVSKMDNISRAAGNTSESQSCARSLLMADRMQIVVILSEFFNTTWQEANCANCLTNNSEELSNSTVYFLNLFNHTLTCFEHNLQGNAHSLLQTKNYSEVCKNCREAYKTLSSLYSEMQKMNELENKAEPGTHLCIDVEDAMNITRKLWSRTFNCSVPCSDTVPVIAVSVFILFLPVVFYLSSFLHSEQKKRKLILPKRLKSSTSFANIQENSN
modifications: glycosylation (NAG) at Asn93, Asn128, Asn163, Asn184, Asn194, Asn216, Asn263
Consider B1, for which the binding result was “binds”.
